According to paper PMC4406679:

Target: T1, His-OpaR (Vibrio parahaemolyticus BB22OP) (UniProt Q79YV4)
T1 sequence: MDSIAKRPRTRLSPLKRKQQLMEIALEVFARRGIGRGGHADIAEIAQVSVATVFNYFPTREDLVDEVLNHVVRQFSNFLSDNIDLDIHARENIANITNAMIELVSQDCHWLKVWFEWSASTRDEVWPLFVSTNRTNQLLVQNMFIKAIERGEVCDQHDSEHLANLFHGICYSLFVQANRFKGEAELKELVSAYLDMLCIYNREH
Assay: EMSA
Conditions: 10 mM Tris-HCl pH 7.5, 50 mM NaCl, 1 mM MgCl2, 0.5 mM EDTA, 0.5 mM DTT, 0.05 mg/ml poly d(I-C), 150 ug/ml BSA; temperature not stated

“CTGTAAGTGAAGAATAATACCGAATGAAGTTTAAAGGCGCTCGAATGAGCGCCTTTTTTATTTGTCATGGAAAACGATAAGAACGAATATGCCGAACATTGAGATCATTCGCTTTAACCACTT (double strand) [araC family (VPBB_A0554) promoter]” was tested, and the binding was “no binding”.
